Molecular target: RGD-recognizing receptors of monocytes
Assay: cell-based or functional assay

With RGDS [Small RGD peptides containing the amino-acid sequence Arg-Gly-Asp-Ser] as the binder, how does the decrease in long-duration monocyte-platelet interactions under flow read?
Its decrease in long-duration monocyte-platelet interactions under flow is 44%.

Reference: patent publication US20160130552A1
